Data as given in publication PMC5453957, “Bartnicki Filip 1”.

Experiments:
Tat49-57-PCNA = Tat49-57-PCNA (human, UniProt P12004 =MRKKRRQRRRGGGGGGHPW+1-261, internal_change); assay: pull-down; AS1 buffer; ITC: 50 mM phosphate pH 7.6, 207 mM NaCl, 25 C; pull-down: AS1 buffer (composition not given), 4 C, or ARGI buffer (50 mM Tris-HCl, 300 mM NaCl, 5 mM EDTA, 0.01% Tween 20, pH 7.5); conditions: protein: recombinant; tags: N-terminal Tat49-57; chain copies: 3; label: 5'-biotin (pull-down)
R6-PCNA = R6-PCNA (human, UniProt P12004 =RRRRRR+1-261, internal_change); assay: as above; conditions: protein: recombinant; tags: N-terminal R6; chain copies: 3; label: 5'-biotin (pull-down)
Sequence of R6-PCNA (P12004 other isoform, or with tags, fused parts or gaps): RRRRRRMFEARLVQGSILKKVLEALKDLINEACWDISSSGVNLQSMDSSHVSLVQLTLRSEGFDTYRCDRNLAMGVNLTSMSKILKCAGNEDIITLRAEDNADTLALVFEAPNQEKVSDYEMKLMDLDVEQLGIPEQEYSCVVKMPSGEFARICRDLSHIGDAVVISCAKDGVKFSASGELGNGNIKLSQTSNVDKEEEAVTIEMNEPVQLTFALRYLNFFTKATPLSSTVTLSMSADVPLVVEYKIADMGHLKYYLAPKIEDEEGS

R6-GST [1] = biological target: T1, R6-GST (synthetic construct, UniProt P08515 =RRRRRR+1-218, internal_change); assay: as above; conditions: protein: recombinant; tags: N-terminal R6 (CPP tag under study); chain copies: 2; label: 5'-biotin (pull-down)
R6-GST [2] = biological target: T1, R6-GST; assay: ITC; 25 C; n 2.61; Table 1 dG -35.8 kJ/mol would fit about 532 nM (R6/R8 possibly swapped); ITC: 50 mM phosphate pH 7.6, 207 mM NaCl, 25 C; pull-down: AS1 buffer (composition not given), 4 C, or ARGI buffer (50 mM Tris-HCl, 300 mM NaCl, 5 mM EDTA, 0.01% Tween 20, pH 7.5); conditions: protein: recombinant; tags: N-terminal R6 (CPP tag under study); chain copies: 2; label: 5'-biotin (pull-down); four mfold structures predicted

Sequence of Tat49-57-PCNA (P12004 other isoform, or with tags, fused parts or gaps): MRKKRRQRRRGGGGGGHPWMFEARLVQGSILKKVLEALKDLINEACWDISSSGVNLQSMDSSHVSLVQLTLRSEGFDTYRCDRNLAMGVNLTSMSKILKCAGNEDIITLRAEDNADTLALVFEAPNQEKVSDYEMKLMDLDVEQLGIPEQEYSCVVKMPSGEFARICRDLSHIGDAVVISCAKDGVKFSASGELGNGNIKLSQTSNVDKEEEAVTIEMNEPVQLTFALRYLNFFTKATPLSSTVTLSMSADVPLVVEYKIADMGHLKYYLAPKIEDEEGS

B1: reference aptamer (ssDNA)
DNA: CATGCTTCCCCAGGGAGATGACTGACTGACTGACTGACTGACTGACTGACTGACTGACTGGAGGAACATGCGTCGCAAAC
B1: no binding (Tat49-57-PCNA); no binding (R6-PCNA); no binding (R6-GST [1]).

B2: 24-10 aptamer full length (ssDNA)
DNA: CATGCTTCCCCAGGGAGATGGACGGCACGTCTTTGTAATTGGTTCTGAGTTCCGTTGTGGGAGGAACATGCGTCGCAAAC
B2: binds (Tat49-57-PCNA); binds (R6-PCNA); binds (R6-GST [1]).

For CTTTGTAATTGGTTCTGAGTTCCGTTGTGGGAGGAACATG (ssDNA) [AR aptamer (24-10 nt 31-70; 5'/-30 and 3'/-10)], the Kd (R6-GST [2]) was 943 ± 37 nM.
